Assay results taken from patent publication US20230250154A1 (CYTONICS, published 2023).

Columns and labels:
Assay in all cases: cell-based or functional assay
ADAMTS5 = target: T1, ADAMTS5 (human, UniProt Q9UNA0 262-622, limits assumed)
T1 sequence (looked up): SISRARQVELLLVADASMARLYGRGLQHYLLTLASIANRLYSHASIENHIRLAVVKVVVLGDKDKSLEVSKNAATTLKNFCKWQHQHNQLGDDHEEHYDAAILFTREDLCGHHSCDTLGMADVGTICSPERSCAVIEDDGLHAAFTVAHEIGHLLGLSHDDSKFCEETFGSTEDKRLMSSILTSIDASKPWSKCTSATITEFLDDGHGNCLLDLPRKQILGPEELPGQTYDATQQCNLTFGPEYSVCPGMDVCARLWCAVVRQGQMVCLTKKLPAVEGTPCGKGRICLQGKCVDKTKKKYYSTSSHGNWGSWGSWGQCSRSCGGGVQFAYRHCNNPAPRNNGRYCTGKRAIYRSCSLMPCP

MMP13 = MMP13 (human, UniProt P45452 104-471, limits assumed)
ADAMTS4 = target: T2, ADAMTS4 (human, UniProt O75173 213-685, limits assumed)
T2 sequence (looked up): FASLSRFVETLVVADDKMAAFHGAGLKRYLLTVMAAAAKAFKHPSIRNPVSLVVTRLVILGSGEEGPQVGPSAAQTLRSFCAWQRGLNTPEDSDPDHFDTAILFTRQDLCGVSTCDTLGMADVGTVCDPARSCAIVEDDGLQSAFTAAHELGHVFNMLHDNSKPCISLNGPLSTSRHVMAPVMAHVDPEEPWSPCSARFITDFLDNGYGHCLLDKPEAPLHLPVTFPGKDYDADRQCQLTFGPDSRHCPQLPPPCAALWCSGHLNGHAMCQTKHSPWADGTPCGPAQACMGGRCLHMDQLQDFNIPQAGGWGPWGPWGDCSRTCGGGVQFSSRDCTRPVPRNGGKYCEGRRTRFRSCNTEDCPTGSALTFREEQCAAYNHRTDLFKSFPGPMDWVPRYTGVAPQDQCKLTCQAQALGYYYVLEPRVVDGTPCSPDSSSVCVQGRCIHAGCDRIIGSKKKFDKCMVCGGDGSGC

Protease Inhibition (% of WT) (ADAMTS5): 237 % of WT
Protease Inhibition (% of WT) (MMP13): 75 % of WT
Protease Inhibition (% of WT) (ADAMTS4): 118 % of WT
B1: Variant A2M, bait region SEQ ID NO 114 (other)
chain: SVSGKPQYMVLVPSLLHTETTEKGCVLLSYLNETVTVSASLESVRGNRSLFTDLEAENDVLHCVAFAVPKSSSNEEVMFLTVQVKGPTQEFKKRTTVMVKNEDSLVFVQTDKSIYKPGQTVKFRVVSMDENFHPLNELIPLVYIQDPKGNRIAQWQSFQLEGGLKQFSFPLSSEPFQGSYKVVVQKKSGGRTEHPFTVEEFVLPKFEVQVTVPKIITILEEEMNVSVCGLYTYGKPVPGHVTVSICRKYSDASDCHGEDSQAFCEKFSGQLNSHGCFYQQVKTKVFQLKRKEYEMKLHTEAQIQEEGTVVELTGRQSSEITRTITKLSFVKVDSHFRQGIPFFGQVRLVDGKGVPIPNKVIFIRGNEANYYSNATTDEHGLVQFSINTTNVMGTSLTVRVNYKDRSPCYGYQWVSEEHEEAHHTAYLVFSPSKSFVHLEPMSHELPCGHTQTVQAHYILNGGTLLGLKKLSFYYLIMAKGGIVRTGTHGLLVKQEDMKGHFSISIPVKSDIAPVARLLIYAVLPTGDVIGDSAKYDVENCLANKVDLSFSPSQSLPASHAHLRVTAAPQSVCALRAVDQSVLLMKPDAELSASSVYNLLPEKDLTGFPGPLNDQDDEDCINRHNVYINGITYTPVSSTNEKDMYSFLEDMGLKAFTNSKIRKPKMCPQLEAQEAGEGKEEEGLGSPVSQELGQRSELEGRGSPTEGEARGSKLRKYFPETWIWDLVVVNSAGVAEVGVTVPDTITEWKAGAFCLSEDAGLGISSTASLRAFQPFFVELTMPYSVIRGEAFTLKATVLNYLPKCIRVSVQLEASPAFLAVPVEKEQAPHCICANGRQTVSWAVTPKSLGNVNFTVSAEALESQELCGTEVPSVPEHGRKDTVIKPLLVEPEGLEKETTFNSLLCPSGGEVSEELSLKLPPNVVEESARASVSVLGDILGSAMQNTQNLLQMPYGCGEQNMVLFAPNIYVLDYLNETQQLTPEIKSKAIGYLNTGYQRQLNYKHYDGSYSTFGERYGRNQGNTWLTAFVLKTFAQARAYIFIDEAHITQALIWLSQRQKDNGCFRSSGSLLNNAIKGGVEDEVTLSAYITIALLEIPLTVTHPVVRNALFCLESAWKTAQEGDHGSHVYTKALLAYAFALAGNQDKRKEVLKSLNEEAVKKDNSVHWERPQKPKAPVGHFYEPQAPSAEVEMTSYVLLAYLTAQPAPTSEDLTSATNIVKWITKQQNAQGGFSSTQDTVVALHALSKYGAATFTRTGKAAQVTIQSSGTFSSKFQVDNNNRLLLQQVSLPELPGEYSMKVTGEGCVYLQTSLKYNILPEKEEFPFALGVQTLPQTCDEPKAHTSFQISLSVSYTGSRSASNMAIVDVKMVSGFIPLKPTVKMLERSNHVSRTEVSSNHVLIYLDKVSNQTLSLFFTVLQDVPVRDLKPAIVKVYDYYETDEFAIAEYNAPCSKDLGNADYKDDDDKGASHHHHHH
